The text below walks through data of patent publication US20210040161A1 (CALIFORNIA INSTITUTE OF TECHNOLOGY, published 2021).

For data set [1], the target named is T1, TlpA_CC R179E (G1B).
T1 construct: Purified coiled-coil domain of TlpA used for CD; The entry already holds the initiating Met, the R179E mutation (numbered on full-length TlpA), C-terminal Leu-Gly and a His6 tag; also called TlpA-G1B (R179E); R179E variant
T1 chain: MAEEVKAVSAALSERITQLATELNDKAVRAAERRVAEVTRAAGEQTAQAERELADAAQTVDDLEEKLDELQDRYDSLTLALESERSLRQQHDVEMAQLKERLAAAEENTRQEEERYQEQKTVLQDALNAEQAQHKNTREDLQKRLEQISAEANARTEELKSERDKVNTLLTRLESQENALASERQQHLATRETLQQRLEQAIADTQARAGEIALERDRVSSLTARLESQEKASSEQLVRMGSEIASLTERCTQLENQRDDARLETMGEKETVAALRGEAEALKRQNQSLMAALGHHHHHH
In words: CD melting curve at 222 nm, purified coiled-coil domains, 3 uM in PBS.

Data set [2] deals with the molecule itself. In words: CuCl2 crosslinking in E. coli lysate, SDS-PAGE, anti-HA Western; full-length homodimer band.

B1: TlpA_CC E180R (G1A) (designed binder)
chain: MAEEVKAVSAALSERITQLATELNDKAVRAAERRVAEVTRAAGEQTAQAERELADAAQTVDDLEEKLDELQDRYDSLTLALESERSLRQQHDVEMAQLKERLAAAEENTRQRRERYQEQKTVLQDALNAEQAQHKNTREDLQKRLEQISAEANARTEELKSERDKVNTLLTRLESQENALASERQQHLATRETLQQRLEQAIADTQARAGEIALERDRVSSLTARLESQEKASSEQLVRMGSEIASLTERCTQLENQRDDARLETMGEKETVAALRGEAEALKRQNQSLMAALGHHHHHH
notes: Purified coiled-coil domain of TlpA used for CD; The entry already holds the initiating Met, the E180R mutation (numbered on full-length TlpA), C-terminal Leu-Gly and a His6 tag; also called TlpA-G1A (E180R); E180R variant
For the molecule B1, the binding result in data set [1] is reported as “binds”.

B2: wild-type TlpA, full length, C-terminal HA tag (crosslinking construct) (other)
chain: MRPATYEPEQIIEAGLALQAEGRNITGFALRNQVGGGNPTRLRQIWDEYQASQSTVVTEPVAELPVEVAEEVKAVSAALSERITQLATELNDKAVRAAERRVAEVTRAAGEQTAQAERELADAAQTVDDLEEKLDELQDRYDSLTLALESERSLRQQHDVEMAQLKERLAAAEENTRQREERYQEQKTVLQDALNAEQAQHKNTREDLQKRLEQISAEANARTEELKSERDKVNTLLTRLESQENALASERQQHLATRETLQQRLEQAIADTQARAGEIALERDRVSSLTARLESQEKASSEQLVRMGSEIASLTERCTQLENQRDDARLETMGEKETVAALRGEAEALKRQNQSLMAALSGNKQTGGQNA
notes: also called wt; not shown: C-terminal HA tag
As to B2, the binding result in data set [2] is on record as “binds”.
